Read-outs that look alike come from different tables or passages of the source.
In the case of “PFKL (phosphofructokinase, liver isoform): K272R”, the degradation_or_half_life (ubiquitination at K272) was “decreases”.
In the case of “PFKP (phosphofructokinase, platelet isoform): AKT inhibitor X (10 μM, 15 hrs)”, the expression_or_secretion (phosphorylation at S386) was “no change”.
In the case of “PFKP (phosphofructokinase, platelet isoform): K281R”, the degradation_or_half_life (ubiquitination at K281) was “decreases”.
With “PFKP (phosphofructokinase, platelet isoform): S386A” the degradation_or_half_life (phosphorylation at S386) was “no change”.

From paper PMC7210009
